The source of these data is PMC7003530 (Biochemistry, 2019).

This experiment concerns the target Factor-inhibiting HIF-1 (human, UniProt Q9NWT6 1-349). As to the kind of experiment: other fluorescence titration.

One may read the Kd as the equilibrium constant for the complex coming apart. A higher Kd goes with lower affinity. As for H-DESGLPQLTSYDAEVNAPIQGSRNLLQGEELLRALDQVN-OH [39-residue CTAD peptide substrate, human HIF-1α 788–826 with C800A], binding was put at a Kd of 92 ± 9 µM.
